Data taken from patent US20110052582A1 (Hoffmann-La Roche, published 2011).

T1: Soluble CDCP1 extracellular domain (CDCP1-ECD) (SEQ ID NO:30) fused to Streptavidin Binding Protein (SBP) (human, UniProt Q9H5V8 30-663)
T1 construct: also called SBP-CDCP1-ECD
T1 sequence: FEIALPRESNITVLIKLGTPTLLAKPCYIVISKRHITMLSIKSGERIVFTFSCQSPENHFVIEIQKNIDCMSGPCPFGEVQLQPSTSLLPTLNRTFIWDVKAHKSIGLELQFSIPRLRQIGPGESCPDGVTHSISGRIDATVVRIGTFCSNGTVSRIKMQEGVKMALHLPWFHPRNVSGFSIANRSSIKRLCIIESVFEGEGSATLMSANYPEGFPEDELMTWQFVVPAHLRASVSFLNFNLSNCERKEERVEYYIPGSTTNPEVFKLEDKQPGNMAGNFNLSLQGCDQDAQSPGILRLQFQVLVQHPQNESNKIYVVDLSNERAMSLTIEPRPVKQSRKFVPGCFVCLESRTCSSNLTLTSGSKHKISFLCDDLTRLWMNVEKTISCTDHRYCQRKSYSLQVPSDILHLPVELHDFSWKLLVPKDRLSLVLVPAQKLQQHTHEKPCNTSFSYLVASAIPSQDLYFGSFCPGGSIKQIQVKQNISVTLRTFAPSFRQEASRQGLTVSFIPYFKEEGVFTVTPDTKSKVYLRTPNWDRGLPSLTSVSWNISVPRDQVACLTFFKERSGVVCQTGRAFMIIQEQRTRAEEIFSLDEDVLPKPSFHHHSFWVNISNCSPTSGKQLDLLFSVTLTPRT


Target: T1, Soluble CDCP1 extracellular domain …
Test: ELISA on captured SBP-CDCP1-ECD, ratio relative to chimeric CUB4 (chHC4)
Procedure: Soluble CDCP1 extracellular domain (CDCP1-ECD) (SEQ ID NO:30) fused to Streptavidin Binding Protein (SBP) was captured on a sreptavidine plate. To define optimal binding of the antibody to SBP-CDCP1-ECD, 384-well polystyrene plates (NUNC, streptavidin-coated) delivered by MicroCoat, Bernried, Germany (ID-No. 1734776-001) have been coated with pure and stepwise diluted HEK293 supernatant (in BSA/IMDM buffer: 100 mg/ml BSA Fraction V, Roche 10735078001, dissolved in Iscove's Modified Dulbeccos Medium). Using a calibration curve of mouse CUB4 antibodies the optimal dilution factor of the HEK293 supernatant in relation to the streptavidin binding capacity of the microtiter plate was identified. For the standard coating, SBP-CDCP1-ECD containing HEK293 supernatant was diluted (between 1:15 and 1:40) and incubated overnight at 2-8° C. (25 μl per well). Intensive washing of the microtiter plate is necessary to remove remaining unbound SBP-CDCP1-ECD.
Humanized CUB4 antibodies and/or reference antibody (chimeric (chHC4) CUB4 antibody comprising human constant region and mouse VH and VL of SEQ ID NO:1 and 2) were tested either undiluted or using a 12-step-dilution. 12.5 μl per well of each sample was incubated for 90 min at room temperature. After intensive washing using PBS-T (0.1% Tween 20 in PBS) 25 μl of either goat anti-human IgG antibodies coupled with HRP (Jackson ImmunoResearch, Code No: 109-036-098, dilution 1:10000) for human antibodies were added and incubated for 1 hour. After intensive washing the binding of the antibodies was detected with ABTS tablets (Roche Diagnostics GmbH, Cat. No.: 1112422). Absorbance at 405 nm/492 nm was measured using a standard photometer.

Row | Binder | relative binding ratio | binding result
1 | hHC4-K2 / hLC4-a (antibody, V domains shown) VH: EVQLVESGGGLVKPGGSLRLSCAASGFTFNSYGMSWVRQAPGKGLEWVSSISSGGSYTYYADSVKGRFTISRDNAKNSLYLQMNSLRAEDTAVYYCARHPDYDGVWFAYWGQGTLVTVSS VL: EIVLTQSPATLSLSPGERATLSCSVSSSVFYVHWYQQKPGQAPRLLIYDTSKLASGIPARFSGSGSGTDFTLTISSLEPEDFAVYYCQQWNSNPPTFGGGTKVEIK | 0.1 | –
2 | hHC4-a / hLC4-b (antibody, V domains shown) VH: EVQLVESGGGLVKPGGSLRLSCAASGFTFNSYGMSWVRQAPGKGLEWVSTISSGGSYTYYPDSVKGRFTISRDNAKNSLYLQMNSLRAEDTAVYYCARHPDYDGVWFAYWGQGTLVTVSS VL: EIVLTQSPATLSLSPGERATLSCSVSSSVFYVHWYQQKPGQAPRLLIYDTSKLASGIPARFSGSGSGTDYTLTISSLEPEDFAVYYCQQWNSNPPTFGGGTKVEIK | 0.36 | –
3 | hHC4-a / hLC4-a (antibody, V domains shown) VH: EVQLVESGGGLVKPGGSLRLSCAASGFTFNSYGMSWVRQAPGKGLEWVSTISSGGSYTYYPDSVKGRFTISRDNAKNSLYLQMNSLRAEDTAVYYCARHPDYDGVWFAYWGQGTLVTVSS VL: EIVLTQSPATLSLSPGERATLSCSVSSSVFYVHWYQQKPGQAPRLLIYDTSKLASGIPARFSGSGSGTDFTLTISSLEPEDFAVYYCQQWNSNPPTFGGGTKVEIK | 0.38 | –
4 | hHC4-K2 / hLC4-b (antibody, V domains shown) VH: EVQLVESGGGLVKPGGSLRLSCAASGFTFNSYGMSWVRQAPGKGLEWVSSISSGGSYTYYADSVKGRFTISRDNAKNSLYLQMNSLRAEDTAVYYCARHPDYDGVWFAYWGQGTLVTVSS VL: EIVLTQSPATLSLSPGERATLSCSVSSSVFYVHWYQQKPGQAPRLLIYDTSKLASGIPARFSGSGSGTDYTLTISSLEPEDFAVYYCQQWNSNPPTFGGGTKVEIK | 0.12 | –
5 | hHC4-K / hLC4-L (antibody, V domains shown) VH: EVQLVESGGGLVKPGGSLRLSCAASGFTFNSYGMSWVRQAPGKGLEWVSSISSGGSYIYYADSVKGRFTISRDNAKNSLYLQMNSLRAEDTAVYYCARHPDYDGVWFAYWGQGTLVTVSS VL: EIVLTQSPATLSLSPGERATMSCRASSSVFYLHWYQQKPGQAPRLWIYDTSKLASGIPARFSGSGSGTDFTLTISSLEPEDFAVYYCQQWNSNPPTFGGGTKVEIK | 0.02 | –
6 | hHC4-K / hLC4-J (antibody, V domains shown) VH: EVQLVESGGGLVKPGGSLRLSCAASGFTFNSYGMSWVRQAPGKGLEWVSSISSGGSYIYYADSVKGRFTISRDNAKNSLYLQMNSLRAEDTAVYYCARHPDYDGVWFAYWGQGTLVTVSS VL: EIVMTQSPATLSLSPGERATMSCRASSSVFYLHWYQQKPGQAPRLWIYDTSKLASGIPARFSGSGSGTDFTLTISSLQPEDFAVYYCQQWNSNPPTFGGGTKVEIK | 0.01 | –
7 | hHC4-a / hLC4-L2 (antibody, V domains shown) VH: EVQLVESGGGLVKPGGSLRLSCAASGFTFNSYGMSWVRQAPGKGLEWVSTISSGGSYTYYPDSVKGRFTISRDNAKNSLYLQMNSLRAEDTAVYYCARHPDYDGVWFAYWGQGTLVTVSS VL: EIVLTQSPATLSLSPGERATMSCSVSSSVFYLHWYQQKPGQAPRLWIYDTSKLASGIPARFSGSGSGTDFTLTISSLEPEDFAVYYCQQWNSNPPTFGGGTKVEIK | 0.58 | –
8 | hHC4-K / hLC4-M (antibody, V domains shown) VH: EVQLVESGGGLVKPGGSLRLSCAASGFTFNSYGMSWVRQAPGKGLEWVSSISSGGSYIYYADSVKGRFTISRDNAKNSLYLQMNSLRAEDTAVYYCARHPDYDGVWFAYWGQGTLVTVSS VL: EIVLTQSPATLSLSPGERATMSCGASSSVFYLHWYQQKPGLAPRLWIYDTSKLASGIPDRFSGSGSGTDFTLTISRLEPEDFAVYYCQQWNSNPPTFGGGTKVEIK | 0.04 | –
9 | hHC4-a / hLC4-M (antibody, V domains shown) VH: EVQLVESGGGLVKPGGSLRLSCAASGFTFNSYGMSWVRQAPGKGLEWVSTISSGGSYTYYPDSVKGRFTISRDNAKNSLYLQMNSLRAEDTAVYYCARHPDYDGVWFAYWGQGTLVTVSS VL: EIVLTQSPATLSLSPGERATMSCGASSSVFYLHWYQQKPGLAPRLWIYDTSKLASGIPDRFSGSGSGTDFTLTISRLEPEDFAVYYCQQWNSNPPTFGGGTKVEIK | 0.8 | –
10 | hHC4-a / hLC4-L (antibody, V domains shown) VH: EVQLVESGGGLVKPGGSLRLSCAASGFTFNSYGMSWVRQAPGKGLEWVSTISSGGSYTYYPDSVKGRFTISRDNAKNSLYLQMNSLRAEDTAVYYCARHPDYDGVWFAYWGQGTLVTVSS VL: EIVLTQSPATLSLSPGERATMSCRASSSVFYLHWYQQKPGQAPRLWIYDTSKLASGIPARFSGSGSGTDFTLTISSLEPEDFAVYYCQQWNSNPPTFGGGTKVEIK | 0.55 | –

Other lines, results leading:

Row | relative binding ratio | binding result | Binder
11 | – | no binding | hHC4-K / hLC4-b (antibody, V domains shown) VH: EVQLVESGGGLVKPGGSLRLSCAASGFTFNSYGMSWVRQAPGKGLEWVSSISSGGSYIYYADSVKGRFTISRDNAKNSLYLQMNSLRAEDTAVYYCARHPDYDGVWFAYWGQGTLVTVSS VL: EIVLTQSPATLSLSPGERATLSCSVSSSVFYVHWYQQKPGQAPRLLIYDTSKLASGIPARFSGSGSGTDYTLTISSLEPEDFAVYYCQQWNSNPPTFGGGTKVEIK
12 | – | no binding | hHC4-K / hLC4-a (antibody, V domains shown) VH: EVQLVESGGGLVKPGGSLRLSCAASGFTFNSYGMSWVRQAPGKGLEWVSSISSGGSYIYYADSVKGRFTISRDNAKNSLYLQMNSLRAEDTAVYYCARHPDYDGVWFAYWGQGTLVTVSS VL: EIVLTQSPATLSLSPGERATLSCSVSSSVFYVHWYQQKPGQAPRLLIYDTSKLASGIPARFSGSGSGTDFTLTISSLEPEDFAVYYCQQWNSNPPTFGGGTKVEIK
13 | – | no binding | hHC4-a / hLC4-I (antibody, V domains shown) VH: EVQLVESGGGLVKPGGSLRLSCAASGFTFNSYGMSWVRQAPGKGLEWVSTISSGGSYTYYPDSVKGRFTISRDNAKNSLYLQMNSLRAEDTAVYYCARHPDYDGVWFAYWGQGTLVTVSS VL: EIVMTQSPATLSLSPGERATLSCRASSSVFYLSWYQQKPGQAPRLWIYDTSKLASGIPARFSGSGSGTDFTLTISSLQPEDFAVYYCQQWNSNPPTFGGGTKVEIK
14 | 0.28 | – | hHC4-a / hLC4-d (antibody, V domains shown) VH: EVQLVESGGGLVKPGGSLRLSCAASGFTFNSYGMSWVRQAPGKGLEWVSTISSGGSYTYYPDSVKGRFTISRDNAKNSLYLQMNSLRAEDTAVYYCARHPDYDGVWFAYWGQGTLVTVSS VL: EIVMTQSPATLSVSPGERATLSCSVSSSVFYVHWYQQKPGQAPRLLIYDTSKLASGIPARFSGSGSGTEYTLTISSLQSEDFAVYYCQQWNSNPPTFGGGTKVEIK
15 | 0.35 | – | hHC4-a / hLC4-c (antibody, V domains shown) VH: EVQLVESGGGLVKPGGSLRLSCAASGFTFNSYGMSWVRQAPGKGLEWVSTISSGGSYTYYPDSVKGRFTISRDNAKNSLYLQMNSLRAEDTAVYYCARHPDYDGVWFAYWGQGTLVTVSS VL: EIVMTQSPATLSVSPGERATLSCSVSSSVFYVHWYQQKPGQAPRLLIYDTSKLASGIPARFSGSGSGTEFTLTISSLQSEDFAVYYCQQWNSNPPTFGGGTKVEIK
16 | – | no binding | hHC4-K / hLC4-I (antibody, V domains shown) VH: EVQLVESGGGLVKPGGSLRLSCAASGFTFNSYGMSWVRQAPGKGLEWVSSISSGGSYIYYADSVKGRFTISRDNAKNSLYLQMNSLRAEDTAVYYCARHPDYDGVWFAYWGQGTLVTVSS VL: EIVMTQSPATLSLSPGERATLSCRASSSVFYLSWYQQKPGQAPRLWIYDTSKLASGIPARFSGSGSGTDFTLTISSLQPEDFAVYYCQQWNSNPPTFGGGTKVEIK
17 | – | no binding | hHC4-K / hLC4-c (antibody, V domains shown) VH: EVQLVESGGGLVKPGGSLRLSCAASGFTFNSYGMSWVRQAPGKGLEWVSSISSGGSYIYYADSVKGRFTISRDNAKNSLYLQMNSLRAEDTAVYYCARHPDYDGVWFAYWGQGTLVTVSS VL: EIVMTQSPATLSVSPGERATLSCSVSSSVFYVHWYQQKPGQAPRLLIYDTSKLASGIPARFSGSGSGTEFTLTISSLQSEDFAVYYCQQWNSNPPTFGGGTKVEIK
